The nature of this data set: soluble on expression in E. coli; label from the status in PepcDB or PDB records.
For “MSDKKDFENNYEKTEDAWPIGVELVEHEISTGIWVTTQWQLTGFALNPTEETPDVCLLQLHKDERTDYRFNLSSQQPKLFLVMDNVESGEKPAIQLLTASQSVAAQYMDGDNLVLSNDMPLAVQAWMEAFIGRHGELLEVRRKKRKGAGRANGN”, the “soluble on expression in E. coli” value is reported as “not soluble”. With “MSDLVMFEPGASTSTDVPTNTDQTAMSTTQVVDALECDTFEGLMNVNETYVEILDSALLSVQQHLDDNLKRQQQLKEEYRLYNRADITKRKVPVHLYMPPYFKDDNNMYPPMSSEAREKQVLKWFDPMMKEEKKWTPSEIKTLRTSVKNALVAHQVQPWCSRRDIVASKLRDADITTSNFDRRQWTMELEDLMRKIAYVREKSEEEVLTASADYTVVPWTAIANFDFKGSRTEWAVKSKWYNELNPKWNKEHWSNEEVEKLKYLRESPKFVSWPMLALNLGTNRTSYQCMEKYKTEVSQHSKEWSQDEDTKLIALTKITSINGHIQWDKVAQCMPGRTRQQVRTRFSHTLDASVKHGRWTDQEDVLLVCAVSRYGAKDWAKVAQAVQNRNDSQCRERWTNVLNRSAHVNERFTLVEDEQLLYAVKVFGKGNWAKCQMLLPKKTSRQLRRRYLQLIAAKLRLAAGFCNAVDAMKSGRRAPEEDELEQEDIVEAEQIPNELMKEVYEKFANENPDMNETPEEFYKRVSALERPAAARIRALKNKPDYQKIQDKINEIVQKHKNAAEIDKELHSSEILSSLTITEVDVRYMIERSKTLTRYYEARQFRKNVDQIGCRVRPIKIDLDPETMPTFDPNDAEDEKQMVIVESLCSVIRAHDVKEWGTKFWNEHRFTAPKYAKRFVENMVINKSKEVAEWYLHVNSKSCNQNDVHCPAKSTLPPTAASFDLHKMLQKARSGLNRLSAEHFYPLDVSLAQQFNFKNDEREGLDGDRRMHIGLSDEVTNSKEYANFYARMRSILLEPMRLGIARESSSDETKRLVRCLAEERACDEEQQVTCDQIRRRRMPDDEIYVTPTSISRELNNGMKIDTTELLANLDKNSAKKIRMKRKIGEVRCDTKIKLLPLVILATVATVAARPARPPRSSAGTPTPSHVSIDTESNISLKVELD”, the “soluble on expression in E. coli” value is recorded as “not soluble”.

Regarding “MSDNALSPQKNHRRLAETLVDRFAQRMRDGVLVRGEKLPSEIHIMEAEGVSRTVVRDALSRMQAAGLVETRHGVGTFVLDMPPPEGFSVGPATIASVADVLNLLEFRLSLEVEAAGLAAQRRSPEALLELKRAFDALLEGPQKSGTTINADFQFHLKIAKASGNAYLIDIMKHLGTKLIPRTRMNSAYTGQSDRSAYLAGINAEHRQIYNAIAEGNVDAARAAMYLHLNGSRMRLRRTQALYSD”, the “soluble on expression in E. coli” value was “not soluble”. As for “MSDSAVVAAAVEPKVPKAKAAKAAKPTKVAKAKAPVAHPPYINMIKEAIKQLKDRKGASKQAILKFISQNYKLGDNVIQINAHLRQALKRGVTSKALVQAAGSGANGRFRVPEKAAAAKKPAAAKKPAAAKKPAAAKKATGEKKAKKPAAAKPKKAATGDKKVKKAKSPKKVAKPAAKKVAKSPAKKAAPKKIAKPAAKKAAKPAAKA”, the “soluble on expression in E. coli” value was “soluble”. For the sequence “MSDVATLESFRLADSFLPVGTYTVSYGLEQFIQDDRVEDATDLEGLLSTYLRRQIGPAELVALRAAHAAATDGDIEAICHADQRLSAVTLAAEFRESAQQSGDRLLSLQTELRDEALLNRYAERVDADDAPGNYAVVLGVATGLADVAVREACLLCCHGFVTGLLGAAQRLLSLGHTDAQRILNDLQPVMTAAVDDSADRGIDEMTPFAPLVDVLAAEHERAERRLFASLEHHHHHH”, the “soluble on expression in E. coli” value is given as “not soluble”.

For “MSDVIFLRQYDDIDIVSSPSQNNIIFGHEAARHFLAQILKEERLPHAILFEGDYGIGKATLAFHLAWNILSSQKDGFKQPEHNSVIWRQITQGSHPGLLHISRRFDVKTQKFKTGILFDDIRDIIHFLNRTSKDSGWRIVIIDPADDMNRNAANAILKTLEEPPAKTLFIIITHFSGKLLPTIRSRCQQISLRPLHNDEMKKIIIHMFSNQNVIDEENIGMIIQKSNGNPRKAALLIHGGFEIIKTIDTLLGQSVCNPTIVHNLAQTLSSLSSVIQFQQFCDEILDKIQKKAIMLAERGNLALSKKCAQAWQEIHQEIGEIQSFNLDKKQFIINLLFRVHKIICESELFP”, the “soluble on expression in E. coli” value is “not soluble”. As for “MSDVPHLRFPEFSGEWEEHTLSEYLEFKNGLNPDAKRIGSGLPFISVMDILSEGVINYDNIRGKVNATEKEIECFGVKDGDLLFQRSSETLEDVGRANVYMDNRTAIYGGFVIRGRKIGNYDPLFFKYLLATPLARKRTCRMGAGAQHFNIGQEGLSKISLYFPSIEEQRKIAEFLSLIDERIATQNKIIEDLKKLKSAISLNVLHSDKWEQFKIKDIAQIGRGRVISSIEIGQQKSPTYPVYSSQTSNDGIMGYLDDYMFEGEYISWTTDGANAGTVFYRNGKFNCTNVCGLLKLRKEFDTHFVSLVLAEATKKYVSINLANPKLMNNTMGNIQIRLPKLEEQKRISIVFRVLQRLWTVHNSLLTEYTKQEQYLLSQMFILEHHHHHH”, the entry is “not soluble”; as for “MSDVQSSLTGTWYNELNSKMELTANKDGTLTGKYLSKVGDVYVPYPLSGRYNLQPPAGQGVALGWAVSWENSKIHSATTWSGQFFSESSPVILTQWLLSSSTARGDVWESTLVGNDSFTKTAPTEQQIAHAQLHCRAPRLK”, “soluble”. Next, “MSEEDWPSPKFREHVIQRLEPELARNRQNAPNLPVPGDARQVEEYVFAKCMSKDEYMRTIAKVINAINCNSKSAAVPSVLQPSQFHSPPCTTAGNTPAGGTPGYRAPVPPDPQPTSAQARNPPVTVATTQASTTPSAPNPPGGLPAPSASATAAVAAAVASFPSPDTSIRPGGQITPGSQAPGGGPTPAPNVPFPNGSSQMNGGPAMGQPPPQMGAPNMGGPPNGYGGYGMMNGPPGSGAPMGGNPYNQQIKKDMDQARPWDPSAHMYQQQPQWGAMPPQQPHGYPGRPMNGQGATPTGPSSVLESLINQPQQYPGHHNQMGPPGDRNVAAQRAAAQQQQQQQQQQQQQRPGMVPNQGMMSSEDQTVYSAKLRNMRGSCDSLRTRARQCRHEGNHEAAHKLEVMLSVLEGKRVVSLEYLNHLEMWIARKQDFLNIAPMSQNQNHMGMNDPMMNGEHAMLGNGQVPNPYGGHPGYGHQQYMGPPPPHMQMHQPPMWHQQQHQQQQRMMPQDHMMMQGGGGPVHGMYRGDMGHDPMTSPVNNHRHAPYPNPAAMRNNMRMPNGPGPIGRDRNSMSGSSMSGPSSGAPSMNPMGTPNQKMGTPGSMGGMSGLDDLNYDDFLPNPTPIDALQPTLHVGQNSMNAGPPVQRSNLNETARKELQILDARFEIDPNHQRHDANHIIVVCKIRNQQFPPLRLVVPTTYPAGNVTVDRAVIDLDAYLYDDLQNSVYERLSRPGLSSITDYLNAWEEQVNQYQNQTSGGLDVAFNVGNDFFYDNLNL”: “not soluble”; “MSEENRVGSKIRQLREARDMTVEELAEASQSSSELIQQLENGALVPSLTPLLKIARALGVRLGTFLDDMPQSGPVLVRSGLSENVVRFSGKTERPKKSALEFYSLASDKADRHMEPFIIDIHPSPEESHTLSSHEGEEFIYVLSGEIEIFYGKDVHRLSEGDSIYYDSIVPHDVHAAGKEDARIMAVVYAPL”: “not soluble”; “MSEFFIQEQQLGKVTRTIVKDQAGRSLFLLVGRWGTRGDALSLYAMNGEILASIKQVSWTFGTRFELYQRFEKVGTLRKLFNLNADFYYVQGLHWAVVGDIKAHQYSIYQVHKKIMSMDKTMLCTGDYFVLTVANDEDAPLCICIAAVLDYWLYNKKKQKTSDDFGLDFDPLTD”: “not soluble”. Next, “MSEGWNIAVLGATGAVGEALLETLAERQFPVGEIYALARNESAGEQLRFGGKTITVQDAAEFDWTQAQLAFFVAGKEATAAWVEEATNSGCLVIDSSGLFALEPDVPLVVPEVNPFVLTDYRNRNVIAVPDSLTSQLLAALKPLIDQGGLSRISVTSLISASAQGKKAVDALAGQSAKLLNGIPIDEEDFFGRQLAFNMLPLLPDSEGSVREERRIVDEVRKILQDEGLMISASVVQAPVFYGHAQMVNFEALRPLAAEEARDAFVQGEDIVLSEENEFPTQVGDASGTPHLSVGCVRNDYGMPEQVQFWSVADNVRFGGALMAVKIAEKLVQEYLY”: “soluble”.
